# Laboratory results published in US20070280939A1 (published 2007).
# Molecular target: T1, HLA-A2*0201 on T2 cells (human)
# T1 construct: whole, on cells; also called HLA-A2 antigen
# Experiment: T2 cell HLA-A2 stabilisation assay, flow cytometry
# Method: T2 cells incubated with peptides were stained for the presence of cell surface HLA-A2 antigen using flow cytometry. Fluorescent intensity of stained cells was used to determine the ability of test peptides to bind and therefore stabilise HLA-A2. […] The RBI was calculated for each peptide from the obtained mean fluorescence intensity (MFI) of T2 cells incubated with test peptide divided by the MFI obtained from cells incubated with 100% DMSO alone.
# T2 cells were washed twice in serum-free RPMI and incubated overnight at 37° C. in a round-bottomed 96 well plate in 50 μl serum-free RPMI containing 160,000 cells and final concentrations of 100, 10 and 1 μM of peptide. A negative control was provided by adding dilute DMSO without peptide to 2 wells. […] After washing in phosphate buffered saline (PBS) (Oxoid, UK) containing 0.1% bovine serum albumin (BSA) (Sigma, USA), the cells were incubated on ice for 30 minutes with 20 μl of mouse antihuman HLA-A2 antibody MA2.1 (ATCC, UK). Following washing with PBS+BSA, 100 μl of a 1/100 dilution of FITC labelled goat anti-mouse IgG (Sigma, USA) was added and the cells incubated for 30 minutes on ice. The cells were washed twice using PBS+BSA, fixed in 500 μl Isoton and allowed to normalise to room temperature for 20 minutes prior to analysis by flow cytometry.
binder,measurement,value
ALASCFCFFC [PAP.15],binding result,"no binding (tested: 100 µM, 10 µM and 1 µM)"
